Measured values taken from patent publication US20230167164A1 (IMMUNOWAKE, published 2023).

Legend:
[1] = biological target: T1, mouse PD-1 (mouse, UniProt Q02242 25-167, limits assumed); test: PD-L2-Fc format, calibrated on PD-L2(wt)-Fc binding affinity
T1 construct: also called mPD-1
T1 sequence (looked up): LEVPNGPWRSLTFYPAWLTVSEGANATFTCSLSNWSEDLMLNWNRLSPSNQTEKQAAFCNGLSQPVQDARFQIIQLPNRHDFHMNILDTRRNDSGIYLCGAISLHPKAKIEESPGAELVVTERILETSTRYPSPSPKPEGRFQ

[2] = biological target: T2, human PD-1 (human, UniProt Q15116 25-167, limits assumed); test: as above
T2 construct: nivolumab is called an anti-human PD-1 antibody; also called hPD-1

[3] = biological target: IL-23 receptor complex (UniProt P42701 24-662; Q5VWK5 24-629, limits assumed); test: cell-based or functional assay
[4] = biological target: T3, CD8 on CD8+ T cells (human, UniProt P01732 22-235); test: FACS on CD8+ T cells
T3 construct: whole, on cells

[5] = biological target: T2, human PD-1; test: Biacore and cell-based assays, calibrated by wildtype nivolumab binding affinity

T2 sequence (Q15116 25-167 limits assumed): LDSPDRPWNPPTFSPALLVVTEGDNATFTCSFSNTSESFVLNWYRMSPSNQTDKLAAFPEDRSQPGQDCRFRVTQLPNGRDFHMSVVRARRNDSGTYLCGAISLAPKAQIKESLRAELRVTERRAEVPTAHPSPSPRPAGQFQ
Sequence of IL-23 receptor complex (Q5VWK5 24-629 limits assumed, chain 2 of 2, other chains not shown): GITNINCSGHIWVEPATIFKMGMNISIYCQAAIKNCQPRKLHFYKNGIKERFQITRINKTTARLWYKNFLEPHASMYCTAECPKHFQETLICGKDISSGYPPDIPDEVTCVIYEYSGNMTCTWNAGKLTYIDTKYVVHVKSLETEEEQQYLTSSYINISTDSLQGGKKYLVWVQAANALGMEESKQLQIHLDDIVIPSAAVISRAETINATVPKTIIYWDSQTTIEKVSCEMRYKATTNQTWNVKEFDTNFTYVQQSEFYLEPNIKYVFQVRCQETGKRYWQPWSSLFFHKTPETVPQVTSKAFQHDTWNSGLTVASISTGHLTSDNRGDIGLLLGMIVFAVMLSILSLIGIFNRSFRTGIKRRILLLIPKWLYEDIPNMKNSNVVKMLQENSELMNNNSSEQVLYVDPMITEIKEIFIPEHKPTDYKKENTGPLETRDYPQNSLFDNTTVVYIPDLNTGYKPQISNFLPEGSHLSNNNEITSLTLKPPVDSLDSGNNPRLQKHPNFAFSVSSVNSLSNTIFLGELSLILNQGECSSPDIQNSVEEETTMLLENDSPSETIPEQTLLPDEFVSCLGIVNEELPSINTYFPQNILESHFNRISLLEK
T3 sequence (P01732 22-235): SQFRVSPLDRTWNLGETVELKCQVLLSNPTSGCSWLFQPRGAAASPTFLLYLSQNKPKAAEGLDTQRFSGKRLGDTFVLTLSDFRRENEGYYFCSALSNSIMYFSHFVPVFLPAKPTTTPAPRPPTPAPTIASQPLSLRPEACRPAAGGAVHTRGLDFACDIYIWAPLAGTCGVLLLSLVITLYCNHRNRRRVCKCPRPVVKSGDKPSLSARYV

B1: PD-L2(mut1)-Fc (Fc fusion)
chain 1: LFTVTVPKELYIIEHGSNVTLECNFDTGSHVNLGAIVASLQKVENDTSPHRERATLLEEQLPLGKASFHIPQVQVRDEGQYQCIIIYGVAWDYKYLTLKVKASYRKINTHILKVPETDEVELTCQATGYPLAEVSWPNVSVPANTSHSRTPEGLYQVTSVLRLKPPPGRNFSCVFWNTHVRELTLASIDLQSQMEPRTHPTDKTHTCPPCPAPEDEGGPSVFLFPPKPKDTLMISRTPEVTCVVVDVSHEDPEVKFNWYVDGVEVHNAKTKPREEQYNSTYRVVSVLTVLHQDWLNGKEYKCKVSNKALPAPIEKTISKAKGQPREPQVYVYPPSREEMTKNQVSLTCLVKGFYPSDIAVEWESNGQPENNYKTTPPVLDEDGSFALVSKLTVDKSRWQQGNVFSCSVMHEALHNHYTQKSLSLSPGK
chain 2: LFTVTVPKELYIIEHGSNVTLECNFDTGSHVNLGAIVASLQKVENDTSPHRERATLLEEQLPLGKASFHIPQVQVRDEGQYQCIIIYGVAWDYKYLTLKVKASYRKINTHILKVPETDEVELTCQATGYPLAEVSWPNVSVPANTSHSRTPEGLYQVTSVLRLKPPPGRNFSCVFWNTHVRELTLASIDLQSQMEPRTHPTDKTHTCPPCPAPEKKGGPSVFLFPPKPKDTLMISRTPEVTCVVVDVSHEDPEVKFNWYVDGVEVHNAKTKPREEQYNSTYRVVSVLTVLHQDWLNGKEYKCKVSNKALPAPIEKTISKAKGQPREPQVYVLPPSREEMTKNQVSLLCLVKGFYPSDIAVEWESNGQPENRYMTWPPVLDSDGSFFLYSKLTVDKSRWQQGNVFSCSVMHEALHNHYTQKSLSLSPGK
notes: also called T56V
With B1 as the binder, how does the Kd [1] read?
The Kd was 430 nM.

What about the Kd [2] of the same binder?
Its Kd is 520 nM.

B2: PD-L2(mut2)-Fc (Fc fusion)
chain 1: LFTVTVPKELYIIEHGSNVTLECNFDTGSHVNLGAITAVLQKVENDTSPHRERATLLEEQLPLGKASFHIPQVQVRDEGQYQCIIIYGVAWDYKYLTLKVKASYRKINTHILKVPETDEVELTCQATGYPLAEVSWPNVSVPANTSHSRTPEGLYQVTSVLRLKPPPGRNFSCVFWNTHVRELTLASIDLQSQMEPRTHPTDKTHTCPPCPAPEDEGGPSVFLFPPKPKDTLMISRTPEVTCVVVDVSHEDPEVKFNWYVDGVEVHNAKTKPREEQYNSTYRVVSVLTVLHQDWLNGKEYKCKVSNKALPAPIEKTISKAKGQPREPQVYVYPPSREEMTKNQVSLTCLVKGFYPSDIAVEWESNGQPENNYKTTPPVLDEDGSFALVSKLTVDKSRWQQGNVFSCSVMHEALHNHYTQKSLSLSPGK
chain 2: LFTVTVPKELYIIEHGSNVTLECNFDTGSHVNLGAITAVLQKVENDTSPHRERATLLEEQLPLGKASFHIPQVQVRDEGQYQCIIIYGVAWDYKYLTLKVKASYRKINTHILKVPETDEVELTCQATGYPLAEVSWPNVSVPANTSHSRTPEGLYQVTSVLRLKPPPGRNFSCVFWNTHVRELTLASIDLQSQMEPRTHPTDKTHTCPPCPAPEKKGGPSVFLFPPKPKDTLMISRTPEVTCVVVDVSHEDPEVKFNWYVDGVEVHNAKTKPREEQYNSTYRVVSVLTVLHQDWLNGKEYKCKVSNKALPAPIEKTISKAKGQPREPQVYVLPPSREEMTKNQVSLLCLVKGFYPSDIAVEWESNGQPENRYMTWPPVLDSDGSFFLYSKLTVDKSRWQQGNVFSCSVMHEALHNHYTQKSLSLSPGK
notes: also called PD-L2(S58V)
B2 was tested. Which Kd [1] did it give?
Its Kd is 230 nM.

And the Kd [2]?
The Kd was 350 nM.

B3: Fab-IL-23(E59A/F60A)-Fc-CD4 Ab (other)
heavy 1: QVQLQQSGPEVVKPGASVKMSCKASGYTFTSYVIHWVRQKPGQGLDWIGYINPYNDGTDYDEKFKGKATLTSDTSTSTAYMELSSLRSEDTAVYYCAREKDNYATGAWFAYWGQGTLVTVSSASTKGPSVFPLAPSSKSTSGGTAALGCLVKDYFPEPVTVSWNSGALTSGVHTFPAVLQSSGLYSLSSVVTVPSSSLGTQTYICNVNHKPSNTKVDKKVEPKSCDKPGSGIWELKKDVYVVELDWYPDAPGEMVVLTCDTPEEDGITWTLDQSSEVLGSGKTLTIQVKAAGDAGQYTCHKGGEVLSHSLLLLHKKEDGIWSTDILKDQKEPKNKTFLRCEAKNYSGRFTCWWLTTISTDLTFSVKSSRGSSDPQGVTCGAATLSAERVRGDNKEYEYSVECQEDSACPAAEESLPIEVMVDAVHKLKYENYTSSFFIRDIIKPDPPKNLQLKPLKNSRQVEVSWEYPDTWSTPHSYFSLTFCVQVQGKSKREKKDRVFTDKTSATVICRKNASISVRAQDRYYSSSWSEWASVPCSGGGGSGGGGSGGGGSGGGGSGRAVPGGSSPAWTQCQQLSQKLCTLAWSAHPLVGHMDLREEGDEETTNDVPHIQCGDGCDPQGLRDNSQFCLQRIHQGLIFYEKLLGSDIFTGEPSLLPDSPVGQLHASLLGLSQLLQPEGHHWETQQIPSLSPSQPWQRLLLRFKILRSLQAFVAVAARVFAHGAATLSPDKTHTCPPCPAPEDEGGPSVFLFPPKPKDTLMISRTPEVTCVVVDVSHEDPEVKFNWYVDGVEVHNAKTKPREEQYNSTYRVVSVLTVLHQDWLNGKEYKCKVSNKALPAPIEKTISKAKGQPREPQVYVYPPSREEMTKNQVSLTCLVKGFYPSDIAVEWESNGQPENNYKTTPPVLDEDGSFALVSKLTVDKSRWQQGNVFSCSVMHEALHNHYTQKSLSLSPGK
heavy 2: QVQLQQSGPEVVKPGASVKMSCKASGYTFTSYVIHWVRQKPGQGLDWIGYINPYNDGTDYDEKFKGKATLTSDTSTSTAYMELSSLRSEDTAVYYCAREKDNYATGAWFAYWGQGTLVTVSSASTKGPSVFPLAPSSKSTSGGTAALGCLVKDYFPEPVTVSWNSGALTSGVHTFPAVLQSSGLYSLSSVVTVPSSSLGTQTYICNVNHKPSNTKVDKKVEPKSCDKTHTCPPCPAPEKKGGPSVFLFPPKPKDTLMISRTPEVTCVVVDVSHEDPEVKFNWYVDGVEVHNAKTKPREEQYNSTYRVVSVLTVLHQDWLNGKEYKCKVSNKALPAPIEKTISKAKGQPREPQVYVLPPSREEMTKNQVSLLCLVKGFYPSDIAVEWESNGQPENRYMTWPPVLDSDGSFFLYSKLTVDKSRWQQGNVFSCSVMHEALHNHYTQKSLSLSPGK
light: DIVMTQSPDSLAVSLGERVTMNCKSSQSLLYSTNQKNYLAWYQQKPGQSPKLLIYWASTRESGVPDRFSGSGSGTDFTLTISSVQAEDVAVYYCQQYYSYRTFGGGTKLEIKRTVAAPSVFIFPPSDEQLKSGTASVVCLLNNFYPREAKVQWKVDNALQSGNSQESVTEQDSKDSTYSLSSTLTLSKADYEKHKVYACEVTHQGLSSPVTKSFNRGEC
With B3 as the binder, how does the “IFN-γ release, % of rIL-23, activated CD8+ T cells” value [3] read?
The value was 0%.

Does B3 bind [4]?
Result: no binding

B4: anti-PD-1 antibody HC-CDR3(D100G) (antibody, IgG1, V domains shown)
VH: QVQLVESGGGVVQPGRSLRLDCKASGITFSNSGMHWVRQAPGKGLEWVAVIWYDGSKRYYADSVKGRFTISRDNSKNTLFLQMNSLRAEDTAVYYCATNGDYWGQGTLVTVSS
VL: EIVLTQSPATLSLSPGERATLSCRASQSVSSYLAWYQQKPGQAPRLLIYDASNRATGIPARFSGSGSGTDFTLTISSLEPEDFAVYYCQQSSNWPRTFGQGTKVEIKR
notes: heterodimeric IgG1 as the WT antibody
How did the Kd [5] turn out when B4 was run?
The Kd was 130 nM.

B5: anti-PD-1 antibody HC-CDR3(N99G) (antibody, IgG1, V domains shown)
VH: QVQLVESGGGVVQPGRSLRLDCKASGITFSNSGMHWVRQAPGKGLEWVAVIWYDGSKRYYADSVKGRFTISRDNSKNTLFLQMNSLRAEDTAVYYCATGDDYWGQGTLVTVSS
VL: EIVLTQSPATLSLSPGERATLSCRASQSVSSYLAWYQQKPGQAPRLLIYDASNRATGIPARFSGSGSGTDFTLTISSLEPEDFAVYYCQQSSNWPRTFGQGTKVEIKR
notes: as for B4
B5 was tested. Which Kd [5] did it give?
The Kd was 2300 nM.

B6: anti-PD-1 antibody HC-CDR3(D100R) (antibody, IgG1, V domains shown)
VH: QVQLVESGGGVVQPGRSLRLDCKASGITFSNSGMHWVRQAPGKGLEWVAVIWYDGSKRYYADSVKGRFTISRDNSKNTLFLQMNSLRAEDTAVYYCATNRDYWGQGTLVTVSS
VL: EIVLTQSPATLSLSPGERATLSCRASQSVSSYLAWYQQKPGQAPRLLIYDASNRATGIPARFSGSGSGTDFTLTISSLEPEDFAVYYCQQSSNWPRTFGQGTKVEIKR
notes: as for B4
How did the Kd [5] turn out when B6 was run?
Its Kd is 910 nM.

B7: anti-PD-1 antibody HC-CDR3(D100N) (antibody, IgG1, V domains shown)
VH: QVQLVESGGGVVQPGRSLRLDCKASGITFSNSGMHWVRQAPGKGLEWVAVIWYDGSKRYYADSVKGRFTISRDNSKNTLFLQMNSLRAEDTAVYYCATNNDYWGQGTLVTVSS
VL: EIVLTQSPATLSLSPGERATLSCRASQSVSSYLAWYQQKPGQAPRLLIYDASNRATGIPARFSGSGSGTDFTLTISSLEPEDFAVYYCQQSSNWPRTFGQGTKVEIKR
notes: as for B4
How did the Kd [5] turn out when B7 was run?
The Kd was 25 nM.
